Experimental data: IntAct's records for PubMed 23183827

Molecular target: syua_human SNCA (UniProt P37840)

“Leucine-rich repeat serine/threonine-protein kinase 2 (Homo sapiens), Q5S007 G2019S” was tested, and the “effect of a mutation on the interaction” value was “increasing interaction”.
